According to US20260176352A1 (BIRD ROCK BIO, published 2026):
Numbering of substitutions follows the chain as printed. Numbers in names are those of the source. Where “and” joins values, the source holds several entries; their conditions need not be identical. Identical values can stand only once.

B1: P1C4-h2-IgG1 (antibody)
heavy: not shown
light: EIVLTQSPATLSLSPGERATLSCRASQSVSSSYLHWYQQKPGQAPRLLIYSTSNLASGIPARFSGSGSGTDFTLTISRLEPEDFAVYYCHQYHRSPPTFGQGTKVEIKRTVAAPSVFIFPPSDEQLKSGTASVVCLLNNFYPREAKVQWKVDNALQSGNSQESVTEQDSKDSTYSLSSTLTLSKADYEKHKVYACEVTHQGLSSPVTKSFNRGEC
notes: also called P1C4-H2 (YE); P1C4-H2 (YE)-IgG
B2: P1C4-h4-IgG1 (antibody)
heavy: not shown
light: B1 light
notes: also called P1C4-H4 (YENG); P1C4-H4 (YENG)-IgG
B3: P1C4-h0-IgG1 (antibody, V domains shown)
VH: QVQLVQSGAEVKKPGSSVKVSCKASGGTFSYYWMNWVRQAPGQGLEWMGQIYPGDGETKYAQKFQGRVTITADKSTSTAYMELSSLRSEDTAVYYCARSHGNYLPYWGQGTLVTVSS
VL: EIVLTQSPATLSLSPGERATLSCRASQSVSSSYLHWYQQKPGQAPRLLIYSTSNLASGIPARFSGSGSGTDFTLTISRLEPEDFAVYYCHQYHRSPPTFGQGTKVEIKR
notes: also called P1C4-H0 No mutation; PA12R3-P1C4 HO (no back mutation)
B4: RY-HL-LC-A12 FACS4 (IgG4 S228P) (antibody, V domains shown)
VH: B3 VH with G27Y, T28E
VL: B3 VL with S32R, S51G, H93S
B5: P1C4-h2 Fab (Fab, V domains shown)
VH: B3 VH with G27Y, T28E
VL: EIVLTQSPATLSLSPGERATLSCRASQSVSSSYLHWYQQKPGQAPRLLIYSTSNLASGIPARFSGSGSGTDFTLTISRLEPEDFAVYYCHQYHRSPPTFGQGTKVEIK
notes: Fab; constant parts not described; also called humanized P1C4 Fab h2
B6: P1C4-h4 Fab (Fab, V domains shown)
VH: B3 VH with G27Y, T28E, A61N, Q62G
VL: B5 VL
notes: Fab; constant parts not described; also called humanized P1C4 Fab h4
B7: RY-HL-LC-C12 FACS4 (IgG4 S228P) (antibody, V domains shown)
VH: B3 VH with G27Y, T28E
VL: B3 VL with S32R, N54R
B8: RY-LC-B12 FACS3 (IgG4 S228P) (antibody, V domains shown)
VH: B3 VH with G27Y, T28E
VL: B3 VL with S32R, N54R, H90Q
B9: RY-LC-A10 FACS5 (IgG4 S228P) (antibody, V domains shown)
VH: B3 VH with G27Y, T28E
VL: B3 VL with S32R, L55R, H90Q

Assays:
[1] = target: T1, human CB2 (human, UniProt P34972 1-360); assay: flow cytometry on TRex-CHO human CB2 cells, middle panel
T1 construct: whole, on cells; also called TRexCHO Human CB2
T1 sequence (P34972 whole entry): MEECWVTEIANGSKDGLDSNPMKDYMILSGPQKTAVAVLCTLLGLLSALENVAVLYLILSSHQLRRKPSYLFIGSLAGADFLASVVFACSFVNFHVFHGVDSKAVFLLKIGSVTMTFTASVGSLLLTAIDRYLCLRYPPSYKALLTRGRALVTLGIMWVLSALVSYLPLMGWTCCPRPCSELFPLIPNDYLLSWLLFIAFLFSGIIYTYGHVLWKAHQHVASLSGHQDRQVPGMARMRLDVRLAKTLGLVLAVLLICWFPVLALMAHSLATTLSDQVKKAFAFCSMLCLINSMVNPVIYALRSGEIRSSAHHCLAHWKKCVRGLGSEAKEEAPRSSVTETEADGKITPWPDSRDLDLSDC
Experimental: (§1) After being washed with 200 μl of FACS buffer twice, cells were incubated with PE conjugated anti-human secondary antibody (Southern Biotech) for 30 minutes on ice. Cells were washed with 200 μl of FACS buffer twice and transferred to BD Falcon 5 ml tube and analyzed by flow cytometry (BD FACScalibur).

[2] = target: T2, mouse CB1 (mouse, UniProt P47746 1-473); assay: flow cytometry on TRex-CHO mouse CB1 cells, lower panel
T2 construct: whole, on cells; also called TRexCHO Mouse CB1
T2 sequence (P47746 whole entry): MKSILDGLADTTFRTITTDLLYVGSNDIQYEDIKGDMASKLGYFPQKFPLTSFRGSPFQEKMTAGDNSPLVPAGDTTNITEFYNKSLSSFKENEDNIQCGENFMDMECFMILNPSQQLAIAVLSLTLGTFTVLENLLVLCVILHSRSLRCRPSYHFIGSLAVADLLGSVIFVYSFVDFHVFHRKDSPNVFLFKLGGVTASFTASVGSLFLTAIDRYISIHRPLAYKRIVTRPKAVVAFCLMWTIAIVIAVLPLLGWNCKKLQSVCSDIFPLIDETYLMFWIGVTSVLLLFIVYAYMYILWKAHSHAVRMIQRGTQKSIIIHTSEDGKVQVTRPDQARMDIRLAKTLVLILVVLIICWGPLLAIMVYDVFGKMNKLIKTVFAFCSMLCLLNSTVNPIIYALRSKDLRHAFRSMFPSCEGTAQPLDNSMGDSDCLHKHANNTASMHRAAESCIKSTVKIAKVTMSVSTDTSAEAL
Experimental: as §1

[3] = target: T3, native full length human CB1 receptor (cannabinoid 1 receptor) (human, UniProt P21554 1-472); assay: cell-based or functional assay
[4] = target: T3, native full length human CB1 receptor …; assay: flow cytometry, TRex-CHO human CB1 cells; mean of batch 1
Experimental: (§2) TRex CHO parental cells, and TRex-CHO cells stably transfected with tetracycline inducible human CB1, human CB2 or mouse CB1 expression constructs were harvested. […] Cells were then centrifuged at 4° C. at 1600 rpm for 3 minutes; supernatant was aspirated and cells were washed with 200 μL FACS buffer. The washing procedure was repeated twice. After the final wash, cells were re-suspended in FACS buffer containing PE-conjugated anti-human Fc secondary antibody (1:200 dilutions) and incubated at 4° C. for 30 minutes. Cells were washed with 200 μL FACS buffer twice and analyzed by flow cytometry (Guava). Data analysis and measurement of binding affinity (KD) was performed using GraphPad Prism software.

[5] = target: T3, native full length human CB1 receptor …; assay: cell-based or functional assay; remark: listed apart in the source
[6] = target: T3, native full length human CB1 receptor …; assay: flow cytometry, TRexCHO A156 cells
Experimental: as §1

[7] = target: T3, native full length human CB1 receptor …; assay: flow cytometry, TRex-CHO human CB1 cells; mean of batch 3
Experimental: as §2

[8] = target: T3, native full length human CB1 receptor …; assay: flow cytometry, TRex-CHO human CB1 cells; mean of batch 2
Experimental: as §2

[9] = target: T3, native full length human CB1 receptor …; assay: flow cytometry on TRex-CHO cells with tetracycline inducible human CB1
Experimental: as §2

[10] = target: T4, TRex CHO A56 over-expressed CB1 (CB1 T210A/fusion partner) (UniProt P21554 1-472); assay: flow cytometry, TRexCHO A56 cells
T4 construct: whole, on cells; The fusion partner stands inside the CB1 chain in place of ICL3, not at its end; also called Trex-CHO CB1 T210A/fusion partner; not shown: fusion partner that replaces ICL3
Experimental: as §1

[11] = target: T3, native full length human CB1 receptor …; assay: flow cytometry, TRex-CHO human CB1 cells; mean ± SD
Experimental: as §2

[12] = target: T3, native full length human CB1 receptor …; assay: flow cytometry, TRex-CHO full length native human CB1 cells; Exp 2
Experimental: (§3) After being washed with 200 μL of FACS buffer twice, cells were incubated with secondary antibody for 30 minutes on ice. Cells were washed with 200 μL of FACS buffer twice and transferred to BD Falcon 5 mL tube and analyzed by FACS. Data analysis and measurement of binding affinity (KD) was performed using GraphPad Prism software.

[13] = target: T3, native full length human CB1 receptor …; assay: flow cytometry, TRex-CHO full length native human CB1 cells; Exp 1
Experimental: as §3

[14] = target: T3, native full length human CB1 receptor …; assay: cell-based or functional assay; remark: listed apart in the source
[15] = target: T3, native full length human CB1 receptor …; assay: flow cytometry, TRex-CHO full length native human CB1 cells; mean
Experimental: as §3

[16] = target: T3, native full length human CB1 receptor …; assay: flow cytometry on TRex-CHO cells stably transfected with tetracycline inducible CB1, FITC-conjugated anti-human antibody [panel A]
[17] = target: T3, native full length human CB1 receptor …; assay: flow cytometry, Fab on TRex-CHO human CB1 cells
[18] = target: T3, native full length human CB1 receptor …; assay: cell-based or functional assay; remark: listed apart in the source
[19] = target: T3, native full length human CB1 receptor …; assay: cell-based or functional assay; remark: listed apart in the source

Binder	binding result [1]	binding result [2]	Kd [12] [nM]	Kd [13] [nM]	Exp 1 IC50 (nM), cAMP antagonist assay [14] [nM]	Exp 2 IC50 (nM), cAMP antagonist assay [14] [nM]	Exp 3 IC50 (nM), cAMP antagonist assay [14] [nM]	Kd [15] [nM]	also measured
B1	no binding (tested: about 300 nM (last point))	no binding (tested: about 300 nM (last point))	–	–	–	–	–	–	–
B2	no binding (tested: about 300 nM (last point))	no binding (tested: about 300 nM (last point))	–	–	–	–	–	–	–
B3	no binding (tested: about 300 nM (last point))	no binding (tested: about 300 nM (last point))	–	–	–	–	–	–	cAMP IC50 (nM) Mean of Batch 1 [n] [3]: 158 nM; cAMP IC50 (nM) Mean of Batch 2 [n] [3]: 343 nM; Kd [4]: 23 nM; IC50 (nM), cAMP assay [5]: 146 nM; Kd [6]: 25 nM; Kd [7]: 24 nM; Kd [8]: 24 nM; EC50 (read off the curve) [9]: ~10 nM and ~20 nM; Kd [10]: 4.5 nM; Kd [11]: 24 nM
B4	–	–	9.19	11.5	48	33.9	42.4	10.3	–
B5	–	–	–	–	–	–	–	–	EC50 (read off the curve) [16]: 10 to 20 nM; Kd [17]: 14 nM; IC50 cAMP assay [18]: 52 nM
B6	–	–	–	–	–	–	–	–	EC50 (read off the curve) [16]: ~20 nM; Kd [17]: 16.2 nM; IC50 cAMP assay [18]: 43 nM; IC50 (read off the curve), cAMP assay [panel B] [19]: ~40 nM
B7	–	–	13.9	14.4	76.8	52.5	43.1	14.1	–
B8	–	–	8.89	8.75	40.9	32.9	39.7	8.82	–
B9	–	–	12.4	–	120	62.6	48.1	12.4	–
